Target: Trimeric form of SARS-CoV-2 RBD (T-RBD) (SARS-CoV-2 | not stated)
Experiment: western blot under reduced and nonreduced conditions

## Trimeric form of SARS-CoV-2 RBD (T-RBD)
  stoichiometry N: 3

From article PMC8426336
